The data set is described as follows: yeast display, Sf9 membrane polyspecificity reagent, FACS + sequencing; frameworks hold sequencing errors. In short, it runs like this:
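Galactose-induced (36–48 hours) yeast carrying a synthetic nanobody display library were exposed to 10% biotinylated, detergent-solubilized Sf9 membrane reagent at 4 °C for 1 hour. FACS followed streptavidin microbead enrichment, using low and high (top ~1%) gates for expression (anti-HA) and reagent binding (streptavidin). Colony PCR, MiSeq 2 × 250 sequencing and CDR-length filtering followed. Labels for polyreactivity reflect the gate of origin.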
Regarding “QVQLVESGGGLVQAGGSLRLSCADSGFILSPNTMGWYRQAPGKERELVAAMSSDVSTYADSVTGRFTISRDNAKNTVYLQMNSLKPEDTAVYYCNADDFGYASYEYWGQGTQVTVSS”, the “polyreactivity (PSR sort gate)” value is recorded as “low polyreactivity”.

For “QVQLVESGGGLVQAGGSLRLSCAASGSIFAAYTMGWYRQAPGKERELVATISSGGSTYYADSVKGRFTISRDNAKNTVYLQMNSLKPEDTAVYYCAAVIGNWQYQYYYWGQGTQVTVSS”, the “polyreactivity (PSR sort gate)” value is on record as “low polyreactivity”. To “QVQLVESGGGLVQAGGSLRLSCAPSGRIFWFNMGCYRQAPGKERELVAAINSGGRTNYADSVKGRFTISRDNAQNTVYLQMNSLKPEDTAVYYCNARYYQVRRWYHYDYSGQGTQVTVSS” belongs “high polyreactivity”. To “QVQLVESGGGLVQAGGSLRLSCAASGRTFYIYAMGWYRQAPGKERELVAAITYGGGRTFYADSVKGRFTISRDYAKTTVYLQMISLKPEDTAVYYCAATDRGKRSTYDYWGQGTQVTVSS” belongs “high polyreactivity”. Turning to “QVQLVESGGGLVQAGGSLRLSCAASGGSYVMGWYRQAPGKERELVAAITFSGRTYYADSVKGRFTISRDNAKNTVYLQMNSLKPEDTAGYYCAARERPGFRRPLTGGYDHWGQVTQVTVSS”, the “polyreactivity (PSR sort gate)” value is on record as “high polyreactivity”. To “QVQLVESGGGLVQAGGSLRLSCAASGLIFTYYAMGWYRQAPGKERELVAAITSGGRTNYADSVKGRFTISRDNAKNTVYLQMNSLKPEDTAVYYCAATSSWRANYRTWVYRYDYWGQGTQVTVSS” belongs “high polyreactivity”; to “QVQLVESGGGLVQAGGSLRLSCAASGSTFSEYAMGWYRQAPGKERELVASITWSDDSTYYADSVKGRFTISRDNAKITVYLQMNSLKPEDSAVYYCAVRTGRRWWKFDYWGQGTQVTVSS”, “low polyreactivity”.

Take “QVQLVESGGGLVQAGGSLRLSCAASGFIFVWYAMGWYRQAPGKERELVAAINGGGRTNYADSVKGRFTISRDNAKYTVYLQMNSLKPEDTAVYYGAAVSYYKSYGEFDYWGQGTQVTVSL”: the “polyreactivity (PSR sort gate)” value is given as “high polyreactivity”. To “QLQLVESGGGLVQAGGSLRLSCAASGSIFYKYAMGWYRQAPGKERELVAAITWSGGRTYYADSVKGRFTISRDNAKNTVYLQMNSLIPEDTAVYYCAAVLRRYPGWVSDYNYWGQGTQVTVSS” belongs “high polyreactivity”. On to “QVQLVESGGRLVQAGGSLRLSCAASGRTFHRYAMGWYRQAPGKERELVAAITSSGGSTNYADSVKGRFTISRDNAKNTVYLQMNSLKPEDTAVYYCATVRYRYTSHPWSRGFDYWGQGTQVTVSS”, for which the “polyreactivity (PSR sort gate)” value is “low polyreactivity”.

As to “QVQLVESGGGLVQAGGSLRLSCAASGSILFSYAMGWYRQAPGKERELVAAINRGDGNTYADSVKGRFTISRDNAKNTVYLQMNSLKPEDTAVYYCNADLFPGYVSYPEYDYWGQGTQVTVSS”, the “polyreactivity (PSR sort gate)” value is “low polyreactivity”. To “QVQLVESGGGLVQAGGSLRLSCAASGFIFLGNAMGWYRQAPGKERELVASISRGGSTNYADSVKGRFTISRDNAKNTVYLQMNSLKPEDTAVYYCAADLSDKFGYWGQGTQVTVSS” belongs “low polyreactivity”; to “QVQLVASGGGLVHAGGSLRLSCAASGGTFWDYAMGWSRQAPGKERELVAVISDSGGTYYADSVKGRFTISRDNAKNTVYLQMNSLKPEDTAVYYCAAGSLTLSTSTVWFAYDYWGQGTQVTVSS”, “high polyreactivity”; to “QVQLVESGGGLVQAGGSLRLSCAASGRIIADNAMGWYRQAPGKERELVATISSGGSTSYADSVKGRFTISRDNAKNTVYLQMNSLKPDDTAVYYCATPYTGPSRPYDYWGQGTQVTVSS”, “low polyreactivity”. To “QVQLVESGGGLVQAGGSLRLSCAASGSILGRYAMGWYRQAPGKERELVAAISYRGGSTYYADSVKGRFTISRDNAKNTVYLQMNSLKPEDTAVYYCATRDPAFYRRYDYWGQGTQVTVSS” belongs “high polyreactivity”; to “QVQLVESGGGLVQAGGRLRLSCAASGSIFRPNPMGLYRQAPGKDRELVAAITWSGDSTYYADSVKGRFTISRDNAKNTVYLQMNSLKPEDTAVYYCAADFTYQGYSANDYWGQGTQVTVSS”, “low polyreactivity”; to “QVQLVQSGGGLVQAGGSLRLSCAASGRTFYRNGMGWYREAPGKDREFVAAINYRGGSTNYADSVKGRFTITRDNAKITVYLQMNSLKPEDTAVYYCATRIFRAALRFDYWGQGTQVTVSS”, “high polyreactivity”.

With “QVQLVESGGGLVQAGGTLRLSCAASGGTFKVNAMGWYRQAPGKERELVASITGRGGSTYYADSVKGRFTISRDNAKNTVYLQMNSLKPEDTAVYYCAAAWRLGHLRFNSWGQGTQVTVSS”, the “polyreactivity (PSR sort gate)” value was “high polyreactivity”. The entry for “QVQLVESGGGLVHAGGSHRLSCAASGSIFPYYTMGWYRQAPGKEREMVAAISGSGTSTYYADSVKGRFTISRDNAKNTVYLQMNSLKPEDTAVYYCAADFRYYVTSLKYDYWGQGTQVTVSS” is “low polyreactivity”; for “QVQLVESGGGLVQAGGSLRLSCASSGSTFGPNDMGWYRQAPGKERELVAAISRSGDDTYYADSVKGRFTISRDNAKNTVYLQMNSLKPEDTAVYYCNADGRPFFLRPLRWELDYWGQGTQVTVSS” it is “low polyreactivity”; for “QVQLVESGGGLVQAGGSLRLSCAASGSIIYPYAMGWYRQAPGKERELVASINWRTGSTYYADSVKGRFTISRDNAKNTVYLQMNSLKPEDTAVYYCAARLDYYTGFDYWGQGTQVTVSS” it is “low polyreactivity”. With “QVQLVESGGGLVQAGGSLRLSCAASGRIFNYYAMGWYRQAPGKERELVARITVGGRTYYADSVKGRFTISRDNAKNTVYLQMNSLKPEDTAVYYCAAVFPYHFGNMDYWGQGTQVTVSS”, the “polyreactivity (PSR sort gate)” value is recorded as “high polyreactivity”. To “QVQLVESGGGLVQAGGTLRLSGAASGSTFFFNAMGWYRQAPGKEWELVAAITGSGGSTYYADSVQGRFTISRDNAKNTVYLQMNSLKPEDTAVYYCAAYGAKPSEYYWGQGTQVTVSS” belongs “low polyreactivity”. The entry for “QVQLVESGGGLVQAGGSLRLSCAASGSIFVFYDMGWYRQAPGKERELVATISSGGGGTYYTDSVKGRFTISRDNAKNTVYLQMNSLKPEDTAVYYCAAEGDKYGKGDGYWGQGPQVTVSS” is “low polyreactivity”; for “QVQLVESGGGLVQAGGSLRLSCAASGSIYWRYAMGWYRQAPGKEMELVASITSGGGSTYYADSVKGRFTISRDNAKNTVYLQMNSLKPEDTAVYYCAAERYYSEAIFRSYDYWGQGTQVTLSS” it is “low polyreactivity”. The entry for “QVQLVESGGGLVQAGGSLRLSGSASGIIFIYYTIGWYRQAPGTESELVAVITTSGDGTYYADSVKGRFTISRDNAKNTVYLQMNSLKPEDTAVYYCAASYSTWVSTRNDYWGQGTQVTVSS” is “low polyreactivity”; for “QVQLVESGGGLVQAGGSLRLSCAASGYTFGYNVMGWYRQAPGKERELVAVISSGGTTYYADSVKGRFTISRDNAKNTVYLQMNSLKPEDTAVYYCNKRSAYKFSTHYGYYYWGQGTQVNVSS” it is “high polyreactivity”; for “QVQLVESGGGLVQAGGSLRLSCAASGLIFIVNAMGWYRQAPGKDRELVAAISSGGSTNYADSVKGRFTISRDNAKNTVYLQMNSLKPEDTAVYYCNAGRGPITQNVGSLAYRSDYWGQGTQVTVSS” it is “low polyreactivity”. “QVQLVESGGGLVQAGGSLRLSCAASGRIFPYYAMGWYRQAPGKERELVAAITARGGRTYYADSVKGRFSISRDNAKNTVYLQMNSLKPEETAVYYCNTGGRSGSPGYDYWGQGTQVTVSS”: the “polyreactivity (PSR sort gate)” value is given as “high polyreactivity”. To “QVHLVESGGGLVQAGGSLRLSCAATGRIFVPYVMGWYRQAPGKERELVASISDSDTSTYYADSVKGRFTISRDNAKNTVYLQMNSLKPEDNAVYYCNVDYWGQGTQVTVSS” belongs “low polyreactivity”; to “QVQLEESGGGLVQAGGSLRLSCAASGFTFNLYTMGWYRQAPGKERELVAAISRSGDRTYYADSVKGRFTISRDNAKNTVYLQMNSLKPEDTAVYYCAARSYRPTRGDYWGQGTQVTVSS”, “high polyreactivity”; to “QVQLVESGGGLVQAGGSLRLSCAASGRIFGAYAMGWYRQAPGKERELVAVITTDGSTTYADSVKGRFTISRDNAKNTVYLQMNSLKPEDTAVYYCAAYGGNGQYYSQYDYWGQGTQVTVSS”, “low polyreactivity”. The entry for “QVQLVESGGGLVQAGGSLRLSCAASGRTFFPYAMGWYRQAPGKEREFVAAITKTDDSTYYADSVKGRFTISRDTSKNTVYLQMNSLKPEDTAVYYCNAGDTQMRFYYGGQGTQVTVSS” is “low polyreactivity”. As for “QVQLVESGGGLVQAGGSLRLSCAASGRTLGGYAMVWYRQAPGTERELVAAITRRGGSTYYADSVKGRFTISRDNAKNTVYLQMYSLKQEDTAVYYCAARYLYSDEYWDKFYYWGQGTQVTVSS”, the “polyreactivity (PSR sort gate)” value is “high polyreactivity”. Consider “QVQLVESGGGLVQAGGSLRLSCAASGSTSYNAMGWYRQPPGKERELVAAITSSGGRTYYADSVKGRFTISRDNAKNTVYLQMNSLKPEDTAVYYCNAPTSARRQGKDYGYWGQGTQVTVSS”, for which the “polyreactivity (PSR sort gate)” value is reported as “high polyreactivity”. To “QVQLVESGGGLVQAGGSLRLSCAAYGFTFWWYAMGWYRQAPGNERELVAAISASGASTYYADSVKGRFTISRDNAKNTVYLQMNSLKPEDTAVYYCAVVGLLRLYYWGQGTQVTVSS” belongs “high polyreactivity”; to “QVQLVESGGGLVQAGGSLRLSCAASGSIFTRNAMGWYRQAPGKERELVADISRRGVSTYYADSVKGRFTISRDNAKNTVYLQMNSLKPEDTAVYYCNKLSSYVVARRTTEYDYWGQGTQVTVSS”, “high polyreactivity”. To “PVQLVESGGGLVQAGGSLRLSCAACGRIFRYYAMGWYRQAPGKERELVAAISRSGGRTYYADSVKGRFTISRDNAKNTVYLEMNSLKPEDTAVYYCNALYYKYYPSRYDYWGLGTQVTVSS” belongs “high polyreactivity”. For the sequence “QVHLVESGGGLVQAGGSLRLSCAASGSIFKYNAMGWYRQSPGKERELVAAISSGGSTNYADSVKGRFTISRDNAKNTVYLQMNSLKPEDTAVYYCAKDRRRWYYTRDYWGQGTQVTVSS”, the “polyreactivity (PSR sort gate)” value was “low polyreactivity”. The entry for “QVQLVESGGGLVQAGGSLRLSCAASGRIFLPYAMGWYRQAPGKERELVAVITGRGGSTYYADAVKGRFTISRDNAKNTVYLQMNSLQPEDTAVYYCAAAYYRGRGYYWGQGTQVSVSS” is “high polyreactivity”. Turning to “QVQIVESGGGLVQAGGSLRFSCAASGRIFIYNAMGWYRQAPGKERELVAAISRTGGRTYYADSVKGRFTISRDISKNTVYLQMNSLKPEDTAVYYCAARNRGQYYSWGQGTQLTVSS”, the “polyreactivity (PSR sort gate)” value is “high polyreactivity”.

For the origin of these results see the nanobody polyreactivity screen of Harvey et al. (2022).
